Paper PMC2642989, “Enhancement of the Seed-Target Recognition Step in RNA Silencing by a PIWI/MID Domain Protein”

Assays:
AfPiwi [1] = molecular target: T1, AfPiwi (UniProt O28951 1-427); test: ITC; AfPiwi into preformed duplex; endothermic; ITC: 50 mM Tris pH 7.5, 150 mM KCl, 5% glycerol, 10 mM MgCl2, 1 mM DTT, 20 C; guide 3.5-24 uM in cell with 3-4 fold excess AfPiwi, target in syringe; conditions: protein: recombinant; blunt
T1 sequence: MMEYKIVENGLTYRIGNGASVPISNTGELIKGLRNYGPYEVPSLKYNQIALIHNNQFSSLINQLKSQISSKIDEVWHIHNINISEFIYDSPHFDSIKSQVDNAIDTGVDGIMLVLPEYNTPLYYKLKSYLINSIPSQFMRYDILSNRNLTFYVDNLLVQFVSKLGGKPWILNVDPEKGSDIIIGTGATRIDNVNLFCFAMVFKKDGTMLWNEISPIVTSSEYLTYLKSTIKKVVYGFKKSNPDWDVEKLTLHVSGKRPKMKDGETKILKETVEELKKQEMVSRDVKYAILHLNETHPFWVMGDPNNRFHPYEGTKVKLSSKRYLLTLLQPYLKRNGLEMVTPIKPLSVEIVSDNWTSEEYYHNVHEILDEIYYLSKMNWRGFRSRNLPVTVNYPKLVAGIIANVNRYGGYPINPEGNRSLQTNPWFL

AfPiwi [2] = molecular target: T1, AfPiwi; test: ITC; target into AfPiwi-guide; 10 mM Mg2+; isolation 206 nM; ITC: 50 mM Tris pH 7.5, 150 mM KCl, 5% glycerol, 10 mM MgCl2, 1 mM DTT, 20 C; guide 3.5-24 uM in cell with 3-4 fold excess AfPiwi, target in syringe; conditions: protein: recombinant; T:G mismatch at guide position 8
AfPiwi [3] = molecular target: T1, AfPiwi; test: ITC; target into AfPiwi-guide; 10 mM Mg2+; isolation 4600 nM; ITC: 50 mM Tris pH 7.5, 150 mM KCl, 5% glycerol, 10 mM MgCl2, 1 mM DTT, 20 C; guide 3.5-24 uM in cell with 3-4 fold excess AfPiwi, target in syringe; conditions: protein: recombinant
AfPiwi [4] = molecular target: T1, AfPiwi; test: ITC; target into AfPiwi-guide; 10 mM Mg2+; isolation 3.6 nM; ITC: 50 mM Tris pH 7.5, 150 mM KCl, 5% glycerol, 10 mM MgCl2, 1 mM DTT, 20 C; guide 3.5-24 uM in cell with 3-4 fold excess AfPiwi, target in syringe; conditions: protein: recombinant; 11 bp, guide 3' overhang 1 nt
AfPiwi [5] = molecular target: T1, AfPiwi; test: ITC; target into AfPiwi-guide; 10 mM Mg2+; isolation 794 nM; ITC: 50 mM Tris pH 7.5, 150 mM KCl, 5% glycerol, 10 mM MgCl2, 1 mM DTT, 20 C; guide 3.5-24 uM in cell with 3-4 fold excess AfPiwi, target in syringe; conditions: protein: recombinant; A:G mismatch at guide position 4
AfPiwi [6] = molecular target: T1, AfPiwi; test: ITC; target into AfPiwi-guide; 10 mM Mg2+; isolation 7520 nM; ITC: 50 mM Tris pH 7.5, 150 mM KCl, 5% glycerol, 10 mM MgCl2, 1 mM DTT, 20 C; guide 3.5-24 uM in cell with 3-4 fold excess AfPiwi, target in syringe; conditions: protein: recombinant; one mismatch
AfPiwi [7] = molecular target: T1, AfPiwi; test: ITC; target into AfPiwi-guide; 10 mM Mg2+; isolation 1490 nM; ITC: 50 mM Tris pH 7.5, 150 mM KCl, 5% glycerol, 10 mM MgCl2, 1 mM DTT, 20 C; guide 3.5-24 uM in cell with 3-4 fold excess AfPiwi, target in syringe; conditions: protein: recombinant; T:G mismatch at guide position 10
AfPiwi [8] = molecular target: T1, AfPiwi; test: ITC; target into AfPiwi-guide; 10 mM Mg2+; isolation 926 nM; ITC: 50 mM Tris pH 7.5, 150 mM KCl, 5% glycerol, 10 mM MgCl2, 1 mM DTT, 20 C; guide 3.5-24 uM in cell with 3-4 fold excess AfPiwi, target in syringe; conditions: protein: recombinant; T:G mismatch at guide position 1
AfPiwi [9] = molecular target: T1, AfPiwi; test: ITC; target into AfPiwi-guide; 10 mM Mg2+; isolation 725 nM in text, 990 nM in Table 2; ITC: 50 mM Tris pH 7.5, 150 mM KCl, 5% glycerol, 10 mM MgCl2, 1 mM DTT, 20 C; guide 3.5-24 uM in cell with 3-4 fold excess AfPiwi, target in syringe; conditions: protein: recombinant
AfPiwi [10] = molecular target: T1, AfPiwi; test: ITC; target into AfPiwi-guide; 10 mM Mg2+; isolation 14600 nM; ITC: 50 mM Tris pH 7.5, 150 mM KCl, 5% glycerol, 10 mM MgCl2, 1 mM DTT, 20 C; guide 3.5-24 uM in cell with 3-4 fold excess AfPiwi, target in syringe; conditions: protein: recombinant; one mismatch
AfPiwi [11] = molecular target: T1, AfPiwi; test: ITC; target into AfPiwi-guide; 10 mM Mg2+; isolation 1280 nM; ITC: 50 mM Tris pH 7.5, 150 mM KCl, 5% glycerol, 10 mM MgCl2, 1 mM DTT, 20 C; guide 3.5-24 uM in cell with 3-4 fold excess AfPiwi, target in syringe; conditions: protein: recombinant; one mismatch
AfPiwi [12] = molecular target: T1, AfPiwi; test: ITC; target into AfPiwi-guide; 10 mM Mg2+; isolation 1.83 uM; ITC: 50 mM Tris pH 7.5, 150 mM KCl, 5% glycerol, 10 mM MgCl2, 1 mM DTT, 20 C; guide 3.5-24 uM in cell with 3-4 fold excess AfPiwi, target in syringe; conditions: protein: recombinant

B1: Fig S3 preformed DNA duplex (dsDNA)
DNA 1: TTGAGTTT
DNA 2: AAACTCAA
modifications: 5' phosphate on strand 1
B1: binds (AfPiwi [1]).

B2: Fig 5F DNA T:G mismatch at position 8 (dsDNA)
DNA 1: TGTAGGTTGCAT
DNA 2: TGCGACCT
modifications: guide 5' phosphate
For B2, the Kd (AfPiwi [2]) was 672 ± 82 nM.

B3: Fig 3B RNA guide / RNA target (seed) (dsRNA)
RNA 1: UUGUUUGU
RNA 2: ACAAACA
modifications: guide 5' phosphate
For B3, the Kd (AfPiwi [3]) was 82.2 ± 2.7 nM.

B4: G12 guide / T11 target (dsDNA)
DNA 1: TGTAGGTTGCAT
DNA 2: TGCAACCTACA
modifications: guide (G12) 5' phosphate
With B4 the Kd (AfPiwi [4]) was 8.4 nM.

B5: Fig 5A RNA A:G mismatch at position 4 (dsRNA)
RNA 1: UGUAGGUU
RNA 2: AACCGACA
modifications: guide 5' phosphate
B5 showed a Kd (AfPiwi [5]) of 1160 ± 260 nM.

B6: Fig 5E DNA mismatch (dsDNA)
DNA 1: TGTAGGTT
DNA 2: AACCTGCA
modifications: guide 5' phosphate
Binder B6 has a Kd (AfPiwi [6]) of 452 ± 27 nM.

B7: Fig 5G DNA T:G mismatch at position 10 (dsDNA)
DNA 1: TGTAGGTTGTAT
DNA 2: ATGCAACC
modifications: guide 5' phosphate
Work on B7 yielded a Kd (AfPiwi [7]) of 2850 ± 350 nM.

B8: Fig 5H DNA T:G mismatch at position 1 (dsDNA)
DNA 1: TGTAGGTT
DNA 2: AACCTACG
modifications: guide 5' phosphate
B8 was tested, and the Kd (AfPiwi [8]) was 17 ± 1.1 nM.

B9: Fig 3A DNA guide / DNA target (seed) (dsDNA)
DNA 1: TGTAGGTT
DNA 2: AACCTACA
modifications: guide 5' phosphate
For B9, the Kd (AfPiwi [9]) was 29.2 ± 2 nM.

B10: Fig 5B RNA mismatch (dsRNA)
RNA 1: UUGUUUGU
RNA 2: ACAAGCA
modifications: guide 5' phosphate
With B10 the Kd (AfPiwi [10]) was 152 ± 16 nM.

B11: Fig 5D RNA mismatch (dsRNA)
RNA 1: UGUAGGUU
RNA 2: ACCUGC
modifications: guide 5' phosphate
For B11, the Kd (AfPiwi [11]) was 2030 ± 150 nM.

B12: Fig 3C DNA guide / RNA target (seed) (DNA:RNA)
DNA: TGTAGGTT
RNA: AACCUAC
modifications: guide 5' phosphate
B12 showed a Kd (AfPiwi [12]) of 28 nM.
